From PMC5913134, “The IL-33-PIN1-IRAK-M axis is critical for type 2 immunity in IL-33-induced allergic airway inflammation” (Nature Communications, 2018)

Assays:
IRAK-M = IRAK-M protein levels in BMDCs; type: cell-based, mouse; details: BMDC from WT and PIN1 KO mice, IL-33, time-dependent
PIN1-IRAK-M interaction = test: GST-PIN1 pulldown of IRAK-M from DC2.4 cell extracts; type: cell-based, C57BL/6; details: 100 ng/ml, 1 h, DC2.4 extracts
Experimental: Fig. 2 IL-33 induces IRAK-M phosphorylation and binding to PIN1. a GST PIN1 pulldown assay with DC2.4 cell extracts either non-treated or treated with IL-33 (100 ng/ml) or LPS (100ng/ml) for 1 h. […] The cells were washed with fresh medium and treated with 100 ng/ml IL-33 for the indicated times prior to IRAK-M immunoprecipitation. d DC2.4 cells stably expressing IRAK-M were treated with IL-33 and at the indicated time points were subjected to CO-IP using anti-PIN1 antibody and blotted for IRAK-M. e HEK293 cells were transfected with different IRAK-M constructs expressing the N’ terminal domain (aa1-220), the middle portion of the protein (aa220-440) or the C’ terminal domain (aa 440-630), and then treated with IL-33, followed by CO-IP for PIN1. f DC2.4 cells stably expressing IRAK-M were treated with IL-33 and subjected to GST or GST-PIN1 pull-down.
Glutathione-Sepharose 4B (Amersham) coupled with glutathione S-transferase (GST) or GST-PIN1 and washed with 150 mM NaCl, 20 mM Tris-HCl (pH 8), 1 mM MgCl2, and 0.1% NP-40 was mixed with 1 mg of total protein extract for 3 h at 4 °C. The beads were then washed extensively, and the protein was eluted with 20 mM reduced glutathione. The proteins were resolved by SDS-PAGE and visualized by Western analysis or autoradiography. […]

PIN1 = PIN1 enzymatic (PPIase) activity in DC2.4 cells; type: cell-based, C57BL/6; details: IL-33 100 ng/ml, 5 min, substrate Suc-Ala-Glu-Pro-Phe-pNa
Experimental: DC2.4 cell line were either treated with 100ng/ml IL-33 for indicate time (0, 5 and 15 min). The cells were harvested and homogenized in a reaction buffer containing 100 mM NaCl, 50 mM HEPES, pH 7, 2 mM DTT, and 0.04 mg/ml BSA. The lysates were cleared by centrifugation at 12,000 g for 10 minutes (4 °C). PPIase activity was measured using equal amounts of […] cytoplasmic lysates and α-chymotrypsin using a synthetic tetrapeptide substrate Suc-Ala-Glu-Pro-Phe-pNa (Peptides International). Absorption at 390 nm was measured using an Ultrospec 2000 spectrophotometer. The results are expressed as the mean of 3 measurements from a single experiment and are representative of 3 independent experiments.

[1] = tested on: CD11c^+ CD11b^+ CD205^+ cells; test: Flow analysis of lung CD11c+ dendritic cells after IL-33 challenge; type: in vivo, mouse; details: for change in CD11c^+ CD11b^+ CD205^+ cells: IL-33, n = 3
Experimental: Male mice in each group, 3-5 weeks old were anesthetized using Isoflurane. The mice were treated intranasal with 200ng/mice/day for four continues days. By the fifth day the mice were killed by CO2 suffocation, and bronchial alveolar lavage fluid (BALF) was extracted using PBS. The lungs were extracted and fixed using 10% para formaldehyde. Immunofluresence of slide sections was performed. Slides were analyzed using anti-PIN1 antibodies and anti-IRAK-M antibodies or IgG as control and were counterstained using DAPI. In some cases, cells obtained from BALF were cytospined and the cells were fixed and stained in the same manner. For staining of the cells, Diff-Quick (Diff-Quik) Staining Protocol were used. All animal work was carried out in compliance with the ethical regulations approved by the Animal Care Committee, Beth Israel Deaconess Medical Center, Boston, MA, USA. The permission was granted to perform animal experiments by the Institutional Animal Care and Use Committee at Beth Israel Deaconess Medical Center, Boston, MA, USA.
Lungs were digested using Kollagenase D and dispase and the dendritic cells populations (CD11c^+ CD205^+ CD11b^+) were determined by staining the cells using the following antibodies: PE anti mouse CD11c (catalog number 117307), APC anti mouse CD205 (catalog number 138205), FITC anti mouse CD11b (catalog number 101205). For co stimulatory protein expression, FITC anti mouse CD40 (catalog number 124607), FITC anti mouse CD80 (catalog number 104705), FITC anti mouse CD86 (catalog number 105005) were used. For T cell (CD3^+ CD4^+) population isolation, the cells were stained with APC anti mouse CD3^+ (catalog number 100235) FITC anti mouse CD4^+ (catalog number 100405) before the cells were cell sorted. Human BALF samples were stained with FITC anti human CD15 (catalog number 301903) or FITC anti human CD205 (catalog number 342206). All antibodies were purchased from Biolegend and diluted according to manufacture instruction (1:100 dilution). Cells were analyzed using LSRII flow cytometer and FlowJo software. For cytospin the cells were spun onto glass slides, air dried and fixed using 4%PFA and stained with the indicated antibodies.

B1: IL-33: Recombinant mouse IL-33 purchased from BioLegend (protein, UniProt Q8BVZ5 1-266, looked up)
Interleukin-33: MRPRMKYSNSKISPAKFSSTAGEALVPPCKIRRSQQKTKEFCHVYCMRLRSGLTIRKETSYFRKEPTKRYSLKSGTKHEENFSAYPRDSRKRSLLGSIQAFAASVDTLSIQGTSLLTQSPASLSTYNDQSVSFVLENGCYVINVDDSGKDQEQDQVLLRYYESPCPASQSGDGVDGKKLMVNMSPIKDTDIWLHANDKDYSVELQRGDVSPPEQAFFVLHKKSSDFVSFECKNLPGTYIGVKDNQLALVEEKDESCNNIMFKLSKI
IRAK-M
  IRAK-M protein levels: increased IRAK-M protein levels in WT, but not PIN1 KO cells
PIN1-IRAK-M interaction
  PIN1-IRAK-M interaction: specific interaction
PIN1
  PIN1 activity: dramatically elevated PIN1 activity
[1]; IRAK-M KO mice
  change in CD11c^+ CD11b^+ CD205^+ cells: non significant (NS) increase
[1]; IRAK-M KO mice, IL-33 treated, n=3
  CD40 and CD80 overexpression in lung CD11c^+ cells: attenuated
[1]; PIN1 KO mice
  change in CD11c^+ CD11b^+ CD205^+ cells: more moderate increase
[1]; WT mice, IL-33 treated, n=3
  CD40 and CD80 expression in lung CD11c^+ cells: elevated
[1]; WT mice, IL-33 vs PBS, n = 3, P < 0.05
  induction of CD11c^+ CD11b^+ CD205^+ cells: 3 fold
